Earlier results on 2 substances are cited in article PMC5535146.

The term Kd denotes the free concentration of one partner at which half of the binding sites on the other are occupied at equilibrium, for simple one-to-one binding.

Where two headings read alike, the source gives them in different places.

Series [1] deals with calmodulin (UniProt P0DP23).
For series [2], the target named is calmodulin (UniProt P0DP23). This is another data set of the same source.

With “CyaA adenylate cyclase AC (from UniProt P0DKX7)”, the Kd in series [1] is 0.2 nM.

As to edema factor (from UniProt P40136), in series [2], the Kd was 20 nM.
